{"source": "patent US10208121B2", "about": "“Anti-Axl antagonistic antibodies” (BERGEN TEKNOLOGIOVERFORING AS, priority 2014, dated 2019)", "molecules": {"B1": {"name": "10C9: mouse anti-Axl monoclonal antibody from hybridoma UT-10C9-B9, IgG2b; VH SEQ ID NO: 3, VL SEQ ID NO: 4 (antibody, listed as Mus musculus, V domains shown)", "VH": "QVQLQQPGPELVKPGASVKISCKTSDYNFTRYYIHWVKQRPGQGLEWIGWIYPGTGDSKYNEKFKGRATLTADTSSSTAYMQLSSQTSEDSAVYFCARNGNYWYFDVWGAGTAVTVSS", "VL": "DIVMTQAAPSGPVTPGESVSISCRSSKSLLHSNGNTYLYWFLQRPGQSPQLLIYRMSNLASGVPDRFSGSGSGTAFTLRISRVEAEDVGIYYCMQHREYPFTFGGGTKLEIK"}}, "system": "Gas6-mediated Axl signalling (phosphorylation of Akt on Ser^473)", "assay": "Gas6-induced Axl downstream signalling, Western blot of phospho-Akt (Ser^473)", "type": "cell-based, human", "settings": "HeLa cells, 1 μg/mL antibody for 1 hr, then mouse Gas6 10 μg/mL for 20 min", "experimental": "Western blot analysis illustrating inhibition of Gas6-mediated Axl signalling in the presence of mouse monoclonal antibodies 10C9 and 10G5. Phosphorylation of Akt on Ser^473 was used as surrogate readout for Axl activity. M, molecular weight markers. Immunoblots of total cell lysates were probed with anti-phospho-Akt (Ser^473), or anti-GAPDH (glyceraldehyde 3-phosphate dehydrogenase) as loading control.\nThe experiments were performed using human cervical cancer derived cell line HeLa (ATCC® CCL-2™). The cells were grown in T175 flasks to 80% confluency in MEM culture medium (Sigma) supplemented with 10% FBS, penicillin-streptomycin and L-glutamine. The cells were washed with PBS and detached by treatment with 0.25% Trypsin/EDTA (Sigma) followed by centrifugation and resuspension in fresh medium (MEM/0.5% FBS). The cells were seeded in Petri dishes (3×10^6 cells per dish) in MEM medium supplemented with 10% FBS. After three hrs incubation at 37° C., the cells were washed with PBS and kept in starvation medium (MEM/0.5% FBS) overnight. The cells were pre-incubated with anti-Axl antibody 10C9 or 10G5 at concentration 1 μg/mL for 1 hr followed by stimulation with Axl ligand, recombinant mouse Gas6 (R&D Systems), at concentration 10 μg/mL for 20 min. […] Detection with anti-GAPDH antibody (Millipore) was used as loading control.", "note": "Entries after “also recorded” stand apart in the source; their conditions may differ."}
{"molecule": "B1", "values": [{"measurement": "Gas6-induced phosphorylation of Akt on Ser^473", "result": "significantly reduces; also recorded: significantly be reduced"}]}
